Measurements reported in patent publication US20260028400A1 (AIMED BIO, published 2026).
Like-named read-outs stand apart in the source and are kept apart here.

Legend:
[1] = target: T1, ROR1 expressed on cell surface (Jeko-1 cell line, AMB-LC-0003T and AMB-LC-0002T patient-derived lung cancer … (human, UniProt Q01973 30-937)); experiment: cell-based or functional assay
[2] = target: T1, ROR1 expressed on cell surface (Jeko-1 …); experiment: cell-based or functional assay; remark: listed apart in the source
[3] = target: T1, ROR1 expressed on cell surface (Jeko-1 …); experiment: cell-based or functional assay; remark: listed apart in the source
[4] = target: T2, mouse ROR1 (mouse, UniProt Q9Z139 30-403, limits assumed); experiment: SPR (Biacore 3000), mouse ROR1 on CM5 chip, IgG injected, 1:1 Langmuir
T2 construct: also called mouse ROR1 protein
T2 sequence (Q9Z139 30-403 limits assumed): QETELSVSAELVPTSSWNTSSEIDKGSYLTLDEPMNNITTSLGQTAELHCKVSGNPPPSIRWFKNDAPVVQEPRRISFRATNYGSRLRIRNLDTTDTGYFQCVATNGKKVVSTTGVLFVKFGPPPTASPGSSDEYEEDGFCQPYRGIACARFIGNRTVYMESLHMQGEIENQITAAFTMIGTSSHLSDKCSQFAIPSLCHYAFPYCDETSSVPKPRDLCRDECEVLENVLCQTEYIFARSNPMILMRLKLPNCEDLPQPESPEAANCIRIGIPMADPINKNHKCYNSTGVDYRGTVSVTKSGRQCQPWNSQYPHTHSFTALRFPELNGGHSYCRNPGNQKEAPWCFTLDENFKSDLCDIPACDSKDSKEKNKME
Procedure: (§1) To more quantitatively analyze the binding ability of the anti-ROR1 antibody to ROR1, SPR (surface plasmon resonance) was performed. A Biacore 3000 device (GE Healthcare) was used. Using the amine coupling method, human ROR1 or mouse ROR1 was diluted with 10 mM sodium acetate, pH 4.5 and immobilized on a CM5 sensor chip (GE Healthcare) at 300 response units (RU). The activated portion remaining on the surface of the sensor chip was deactivated by adding 1 M ethanolamine-HCl (pH 8.5).

[5] = target: T3, FZD (human, UniProt Q01973); experiment: ELISA, IgG on coated domain, OD450
T3 construct: frizzled domain, His tag; also called Frizzled domain; human ROR1-frizzled domain
T3 sequence (Q01973 165-305 limits assumed): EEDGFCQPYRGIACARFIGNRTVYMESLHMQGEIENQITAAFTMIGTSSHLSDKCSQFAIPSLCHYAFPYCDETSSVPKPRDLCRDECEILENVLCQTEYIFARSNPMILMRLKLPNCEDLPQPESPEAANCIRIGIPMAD
Procedure: (§2) ELISA was performed to analyze the binding domain using the IgG antibody of the selected clone.
(§3) After washing with PBST and distilled water, binding at room temperature for 1 hour using a goat-derived HRP-conjugated anti-human antibody (Invitrogen, 31482, Goat anti-Human IgG F(ab′)₂ Secondary Antibody, HRP) and then washing again using PBST and distilled water were performed. After color development by adding TMB substrate solution (Thermo Scientific, 34029, 1-Step™ Ultra TMB-ELISA Substrate Solution), the color reaction was stopped with stop solution (Invitrogen, SS04, ELISA Stop Solution), and the absorbance was measured at OD 450 nm. The anti-ROR1 antibody clone binding to each domain was analyzed through ELISA (FIG. 3).

[6] = target: T4, FZD+KRD (human, UniProt Q01973); experiment: ELISA, IgG on coated domain, OD450
T4 construct: frizzled plus kringle domains, His tag; also called FK domain; human ROR1-frizzled-kringle domain
T4 sequence (Q01973 165-395 limits assumed): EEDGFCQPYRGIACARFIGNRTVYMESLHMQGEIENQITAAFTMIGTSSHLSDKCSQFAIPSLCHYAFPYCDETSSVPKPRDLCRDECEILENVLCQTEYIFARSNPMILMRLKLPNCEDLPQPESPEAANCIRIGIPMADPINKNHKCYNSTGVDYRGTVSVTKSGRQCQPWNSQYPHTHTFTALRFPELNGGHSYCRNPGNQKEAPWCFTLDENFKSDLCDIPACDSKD
Procedure: as §2, §3

[7] = target: T5, Ig+FZD (human); experiment: ELISA, IgG on coated domain, OD450
T5 construct: Ig-like plus frizzled domains, His tag; also called IF domain; human ROR1-immunoglobulin-frizzled domain
T5 sequence (Q01973 30-305): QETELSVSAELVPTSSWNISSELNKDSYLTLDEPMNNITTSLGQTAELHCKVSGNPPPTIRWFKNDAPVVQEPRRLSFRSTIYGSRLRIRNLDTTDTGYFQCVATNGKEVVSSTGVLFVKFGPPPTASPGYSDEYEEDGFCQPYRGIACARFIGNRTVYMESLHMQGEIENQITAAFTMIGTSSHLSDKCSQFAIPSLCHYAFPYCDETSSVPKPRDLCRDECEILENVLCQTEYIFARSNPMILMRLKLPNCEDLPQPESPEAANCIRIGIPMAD
Procedure: as §2, §3

[8] = target: T6, Ig-like (human, UniProt Q01973); experiment: ELISA, IgG on coated domain, OD450
T6 construct: Ig-like domain, His tag; also called Ig-like domain; human ROR1-immunoglobulin domain
T6 sequence (Q01973 39-151 limits assumed): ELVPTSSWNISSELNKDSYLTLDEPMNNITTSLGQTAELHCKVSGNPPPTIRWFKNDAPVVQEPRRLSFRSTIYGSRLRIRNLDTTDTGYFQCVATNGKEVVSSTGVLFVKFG
Procedure: as §2, §3

[9] = target: T1, ROR1 expressed on cell surface (Jeko-1 …); experiment: flow cytometry on Jeko-1 cells
Procedure: (§4) Before therapeutic use of anti-ROR1 antibodies, it is very important to determine whether the antibody binds to the antigen expressed on the cell surface. The cell binding ability of anti-ROR1 antibodies developed by the present inventors was measured using FACS in Jeko-1 cell line and AMB-LC-0003T patient-derived cells, which were confirmed to have high ROR1 expression. Each cell type was dispensed at 1×10⁵ cells/100 μl FACS buffer per well in a 96-well plate.
(§5) Cell binding ability analysis was performed using anti-ROR1 candidate antibodies P015004, P015042, P015043, P015044, P015042v1 with improved biological and physical properties, and P015042v1-6, one of modified materials thereof. Each antibody was serially diluted 10-fold from 100 nM to 10 nM, 1 nM, 100 pM, 10 pM, and 1 pM and the cells were treated therewith. After reaction at 4° C. for 30 minutes, washing was performed twice. PE-labeled goat anti-human IgG Fc PE (ThermoFisher; 12-4998-82) as a secondary antibody was diluted at a ratio of 1:100 in FACS buffer, and 100 μl thereof was dispensed per well. Reaction again at 4° C. for 30 minutes and washing twice were performed. Finally, 100 μl of FACS buffer was dispensed per well, followed by mixing well with a pipette and then flow cytometry using a NovoCyte flow cytometer (Agilent). Analysis was performed using GraphPad Prism 9.3.1, and EC₅₀ values were obtained using a log (agonist) vs. response-Variable slope nonlinear graph model.

[10] = target: T1, ROR1 expressed on cell surface (Jeko-1 …); experiment: flow cytometry on AMB-LC-0003T patient-derived lung cancer cells
Procedure: as §4, §5

[11] = target: T7, human ROR1 (human, UniProt Q01973 30-403, limits assumed); experiment: SPR (Biacore 3000), human ROR1 on CM5 chip, IgG injected, 1:1 Langmuir
T7 construct: also called human ROR1 protein
T7 sequence (Q01973 30-403 limits assumed): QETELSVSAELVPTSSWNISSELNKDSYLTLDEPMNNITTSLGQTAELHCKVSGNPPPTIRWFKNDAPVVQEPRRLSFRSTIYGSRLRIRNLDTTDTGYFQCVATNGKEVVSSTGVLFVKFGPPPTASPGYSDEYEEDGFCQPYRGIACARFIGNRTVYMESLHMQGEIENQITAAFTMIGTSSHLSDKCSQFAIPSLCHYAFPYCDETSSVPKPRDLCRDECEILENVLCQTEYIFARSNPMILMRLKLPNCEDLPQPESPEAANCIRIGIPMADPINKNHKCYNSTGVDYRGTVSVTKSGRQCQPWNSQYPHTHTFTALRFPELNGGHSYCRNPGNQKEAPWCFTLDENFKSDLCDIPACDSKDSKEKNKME
Procedure: as §1

[12] = target: T7, human ROR1; experiment: ELISA, IgG on coated human ROR1, OD450
Procedure: A 96-well plate was coated at 4° C. for 16 hours with each of human ROR1 and mouse ROR1 proteins at a concentration of 2 μg/ml and then blocked using […]. […] After washing with PBST and distilled water, binding at room temperature for 1 hour using a goat-derived HRP-conjugated anti-human antibody (Invitrogen, 31482, Goat anti-Human IgG F(ab′)₂ Secondary Antibody, HRP) and then washing again using PBST and distilled water were performed. After color development by adding TMB substrate solution (Thermo Scientific, 34029, 1-Step™ Ultra TMB-ELISA Substrate Solution), the color reaction was stopped with stop solution (Invitrogen, SS04, ELISA Stop Solution), and the absorbance was measured at OD 450 nm. It was confirmed that the anti-ROR1 antibody of the present invention and the modified antibody thereof with improved biological and physical properties […] to human ROR1 and mouse ROR1 (FIG. 2).

T1 sequence (Q01973 30-937): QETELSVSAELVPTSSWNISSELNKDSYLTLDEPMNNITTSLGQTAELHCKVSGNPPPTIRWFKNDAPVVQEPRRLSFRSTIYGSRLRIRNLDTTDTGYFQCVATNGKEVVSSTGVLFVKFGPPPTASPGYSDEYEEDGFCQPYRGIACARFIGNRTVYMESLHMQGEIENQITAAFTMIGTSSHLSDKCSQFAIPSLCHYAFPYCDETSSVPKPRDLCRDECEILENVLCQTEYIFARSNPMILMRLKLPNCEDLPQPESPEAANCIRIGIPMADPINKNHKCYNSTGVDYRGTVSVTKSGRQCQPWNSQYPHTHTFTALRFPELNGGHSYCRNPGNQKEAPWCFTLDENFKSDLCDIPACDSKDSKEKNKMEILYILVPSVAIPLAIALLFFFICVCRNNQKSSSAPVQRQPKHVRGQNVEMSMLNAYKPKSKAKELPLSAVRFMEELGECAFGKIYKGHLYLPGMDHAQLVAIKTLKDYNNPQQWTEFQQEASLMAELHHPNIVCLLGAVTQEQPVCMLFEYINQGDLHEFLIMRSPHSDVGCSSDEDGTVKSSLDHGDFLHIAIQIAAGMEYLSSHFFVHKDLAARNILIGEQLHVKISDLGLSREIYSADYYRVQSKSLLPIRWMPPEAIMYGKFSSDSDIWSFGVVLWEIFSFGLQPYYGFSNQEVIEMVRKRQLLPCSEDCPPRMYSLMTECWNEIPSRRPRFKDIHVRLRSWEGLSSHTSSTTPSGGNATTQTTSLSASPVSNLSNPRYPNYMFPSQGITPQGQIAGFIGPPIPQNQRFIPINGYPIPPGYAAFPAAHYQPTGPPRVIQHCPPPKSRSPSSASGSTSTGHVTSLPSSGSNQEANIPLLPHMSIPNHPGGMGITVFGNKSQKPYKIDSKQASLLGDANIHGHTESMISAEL

Binder	Kd [4] [nM]	koff [4] [s⁻¹]	kon [4] [M⁻¹ s⁻¹]	binding result [5]	binding result [6]	EC50 (read off the curve) [7] [nM]	EC50 [9] [nM]	EC50 [10] [nM]	Kd [11] [nM]	koff [11] [s⁻¹]	kon [11] [M⁻¹ s⁻¹]	binding result [8]	further results
P015042-vc-PAB-MMAE (antibody, IgG1, V domains shown, maleimidocaproyl-valine-citrulline-p-aminobenzyloxycarbonyl monomethyl auristatin E on cysteine sulfhydryls of reduced disulfides; positions not given; average 3.3 drugs per antibody) VH: EVQLLESGGGLVQPGGSLRLSCAASGFTFSDYAMSWVRQAPGKGLEWVSVISSDGGSIYYADSVKGRFTISRDNSKNTLYLQMNSLRAEDTAVYYCAKDRSRDMEVDFDYWGQGTLVTVSS VL: QSVLTQPPSASGTPGQRVTISCSGSSSNIGSNYVTWYQQLPGTAPKLLIYDSSQRPSGVPDRFSGSKSGTSASLAISGLRSEDEADYYCGTWDYSLSGYVFGGGTKLTVL	–	–	–	–	–	–	–	–	–	–	–	–	Fold Change of IC50, AMB-LC-0002T/AMB-LC-0003T [1]: 81.4 fold; IC50 (nM), spheroid volume, AMB-LC-0002T (low ROR1 expression) [1]: 187 nM; IC50 (nM), spheroid volume, AMB-LC-0003T (high ROR1 expression) [1]: 2.3 nM; Fold Change of IC50, AMB-LC-0002T/AMB-LC-0003T [2]: 56.3 fold; IC50 (nM), spheroid volume after 6 days of treatment, AMB-LC-0003T (high ROR1 expression) [2]: 2.88 nM; IC50 (nM), spheroid volume, AMB-LC-0002T (very low ROR1 expression) [2]: 162 nM; IC50, spheroid volume, AMB-LC-0002T (low ROR1 expression) [3]: ≥ 100 nM
P015042 (antibody, V domains shown) VH: EVQLLESGGGLVQPGGSLRLSCAASGFTFSDYAMSWVRQAPGKGLEWVSVISSDGGSIYYADSVKGRFTISRDNSKNTLYLQMNSLRAEDTAVYYCAKDRSRDMEVDFDYWGQGTLVTVSS VL: QSVLTQPPSASGTPGQRVTISCSGSSSNIGSNYVTWYQQLPGTAPKLLIYDSSQRPSGVPDRFSGSKSGTSASLAISGLRSEDEADYYCGTWDYSLSGYVFGGGTKLTVL	0.102	0.000176	1.72e+06	no binding (tested: 300 nM)	no binding (tested: 300 nM)	~0.4	0.081	0.15	0.17	0.000239	1.41e+06	–	EC50 (read off the curve) [8]: ~7 nM
P015018 (antibody, V domains shown) VH: EVQLLESGGGLVQPDGSMRLICAASGFTFSSYAKHWVRQAPGKGLEWVSEIYTSGSTNYNPSLKSRFTISRDNSKNTLYLQMNSLRAEDTAVYYCARDTWWEGYFDLWGQGTLVTVSS VL: EIVLTQSPGTLSLSPGERATLSCRASQSVSTYLAWYQQKPGQAPRLLIYDASSLESGIPDRFSGSGSGTDFTLTISRLEPEDFAVYYCQQSYNLPHTFGQGTKVEIK	83.2	0.0782	940000	no binding (tested: 300 nM)	no binding (tested: 300 nM)	~10	–	–	0.845	0.00249	2.95e+06	no binding (tested: 300 nM)	EC50 (read off the curve) [12]: ~1 nM
P015044 (antibody, V domains shown) VH: EVQLLESGGGLVQPGGSLRLSCAASGFTFSNYAMHWVRQAPGKGLEWVSIIYPDDDTRYNPSFRGRFTISRDNSKNTLYLQMNSLRAEDTAVYYCARDLLYAGDYWGQGTLVTVSS VL: QSVLTQPPSASGTPGQRVTISCGGNNIESKAVHWYQQLPGTAPKLLIYANNKRPSGVPDRFSGSKSGTSASLAISGLRSEDEADYYCQSYDSNKVVFGGGTKLTVL	1.21	0.00202	1.67e+06	no binding (tested: 300 nM)	no binding (tested: 300 nM)	–	0.13	1.78	3.08	0.00382	1.24e+06	–	–

Now from value to binder, other results behind:

Kd [4] [nM]	koff [4] [s⁻¹]	kon [4] [M⁻¹ s⁻¹]	binding result [5]	binding result [6]	EC50 (read off the curve) [7] [nM]	EC50 [9] [nM]	EC50 [10] [nM]	Kd [11] [nM]	koff [11] [s⁻¹]	kon [11] [M⁻¹ s⁻¹]	binding result [8]	Binder	further results
0.175	0.00034	1.94e+06	–	–	–	0.014	0.16	0.172	0.000278	1.62e+06	–	P015042v1 (antibody, V domains shown, Tested as complete IgG; Parent of the variants P015042v1-1 to P015042v1-6) VH: EVQLLESGGGLVQPGGSLRLSCAASGFTFSDYAMSWVRQAPGKGLEWVSVISSDGGSIYYADSVKGRFTISRDNSKNTLYLQMNSLRAEDTAVYYCAKDRSRDMEVDFDYWGQGTLVTVSS VL: QSVLTQPPSASGTPGQRVTISCSGSSSNIGSNYVTWYQQLPGTAPKLLIYDSSQRPSGVPDRFSGSKSGTSASLAISGLRSEDEADYYCGTWDYSLNGYVFGGGTKLTVL	–
0.328	0.00269	8.18e+06	no binding (tested: 300 nM)	no binding (tested: 300 nM)	~3	8.16	4.6	0.325	0.00343	1.06e+07	no binding (tested: 300 nM)	P015004 (antibody, V domains shown) VH: EVQLLESGGGLVQPGGSLRLSCAASGFTFSDYAMAWVRQAPGKGLEWVSIIYPGDSETIYSPSFEGRFTISRDNSKNTLYLQMNSLRAEDTAVYYCARDTYWEGYFDLWGQGTLVTVSS VL: EIVLTQSPGTLSLSPGERATLSCRASQGISNYLAWYQQKPGQAPRLLIYDASNLESGIPDRFSGSGSGTDFTLTISRLEPEDFAVYYCQQYANLPYTFGQGTKVEIK	–
0.285	0.000356	1.25e+06	–	–	~2	–	–	0.0789	0.000321	4.07e+06	no binding (tested: 300 nM)	P015012 (antibody, V domains shown) VH: EVQLLESGGGLVQPGGSLRLSCAASGFTFSGYSMSWVRQAPGKGLEWVSGISYGGSSISYADSVKGRFTISRDNSKNTLYLQMNSLRAEDTAVYYCAKPVRRWARFRLSYDDAMDVWGQGTLVTVSS VL: QSVLTQPPSASGTPGQRVTISCSGSSSNIGNNAVNWYQQLPGTAPKLLIYANSHRPSGVPDRFSGSKSGTSASLAISGLRSEDEADYYCGTWDSSLSGYVFGGGTKLTVL	–
